To fix the notation:
B1: PRT-630 (protein)
chain: MQITSVWTKGVTPLTPEQFRYNNEDVIHAPYLAHQGWYDITKAFDGKDNLLCGAATAGNMLHWWFDQNKEEIENYLKKYPEKQKIIFNNQELFDLKAAIDTKDSQTNSQLFNYFRDKAFPNLSARQLGVMPDLVLDMFINGYYLNVFKTQSTDVNRPYQDKDKRGGIFDAVFTRGDQTTLLTARHDLKNKGLNDISTIIKQELTEGRALALSHTYANVSISHVINLWGADFNAEGNLEAIYVTDSDANASIGMKKYFVGINAHGHVAISAKKIEGENIGAQVLGLFTLSSGQEIWEQLSLEHHHHHH
B2: PRT-563 (protein)
chain: MANQEIRYSEATPSHITSVWTKGVTPPTQFIQNEDVLHAPYIANQGWYDITKTFNGKDDLLCGAATAGNMLHWWFDQNKTQIENYLKKHPEKQKINFNGEQMFDVKEAIDTKDSQTDSALFSYFKDKAFPYLSTKHLGVFPDHVIDMFINGYRLSLTNHGPTPVKRQTKDPRGGIFDAVFTRGDQSKLLTARHDFKEKTLNEISQLIKQELTEGKALGLSHTYANVRINHVINLWGADFNAEGNLEAIYVTDSDSNASIGMKKYYVGVNAAGKVAISAKEIEGDNIGAQVLGLFTLSTGQDIWQQTNLEHHHHHH
B3: PRT-659 (protein)
chain: MQITSVWTKGVTPLTPEQFRYNNEDVIHAPYLAHQGWYDITKAFDGKDNLLCGAATAGNMLHWWFDQNKTEIEAYLSKHPEKQKIIFNNQELFDLREAINTKDDQKDSKLFNYFREKAFPNLSARQLGVMPDLVLDMFINGYYLNVFKTQSTDVNRPYQDKDKRGGIFDAVFTRGDQTTLLTARHDLKNKGLNDISTIIKQELTEGRALALSHTYANVSISHVINLWGADFNAEGNLEAIYVTDSDANASIGMKKYFVGINAHGHVAISAKKIEGENIGAQVLGLFTLSSGKDIWQKLSLEHHHHHH
B4: PRT-615 (protein)
chain: MQITSVWTKGVTPLTPEQFRYNNEDVIHAPYLAHQGWYDITKAFDGKDNLLCGAATAGNMLHWWFDQNKTEIEAYLSKYPEKQKIIFNNQELFDLRAAINTKDSQTNSQLFNYFRDKAFPNLSARQLGVMPDLVLDMFINGYYLNVFKTQSTDVNRPYQDKDKRGGIFDAVFNRGDQTTLLTARHDLKNKGLNDISTIIKQELSSGRALALSHTYANVSISHVINLWGADFNAEGNLEAIYVTDSDANSNIGMKKYKVGINAHGHVAISAKKIEGENIGAQVLGLFTLSSGKDIWQKLSLEHHHHHH
B5: PRT-620 (protein)
chain: MQITSVWTKGVTPLTPEQFRYNNEDVIHAPYLAHQGWYDITKAFDGKDNLLCGAATAGNMLHWWFDQNKTEIEAYLSKHPEKQKIIFNNQELFDLKAAIDTKDSQTNSQLFNYFRDKAFPNLSARQLGVMPDLVLDMFINGYYLNVFKTQSTDVNRPYQDKDKRGGIFDAVFTRGDQTTLLTARHDLKNKTLKEISDIIKQELTEGRALALSHTYANVSISHVINLWGADFNAEGNLEAIYVTDSDANASIGMKKYFVGINAHGHVAISAKKIEGENIGAQVLGLFTLSSGKDIWQKLSLEHHHHHH
B6: PRT-640 (protein)
chain: MQITSVWTKGVTPLTPEQFRYNNEDVIHAPYLAHQGWYDITKTFNGKDNLLCGAATAGNMLHWWFDQNKTEIEAYLSKHPEKQKIIFNNQELFDLKAAIDTKDSQTNSQLFNYFRDKAFPNLSARQLGVMPDLVLDMFINGYYLNVFKTQSTDVNRPYQDKDKRGGIFDAVFTRGDQTTLLTARHDLKNKGLNDISTIIKQELTEGRALALSHTYANVSISHVINLWGADFNAEGNLEAIYVTDSDADEKIGMKKYFVGINAHGHVAISAKKIEGENIGAQVLGLFTLSSGKDIWQKLSLEHHHHHH
B7: PRT-634 (protein)
chain: MQITSVWTKGVTPLTPEQFRYNNYDVIHAPYKPNQGWYDITKAFDGKDNLLCGAATAGNMLHWWFDQNKTEIEAYLSKHPEKQKIIFNNQELFDLKAAIDTKDSQTNSQLFNYFRDKAFPNLSARQLGVMPDLVLDMFINGYYLNVFKTQSTDVNRPYQDKDKRGGIFDAVFTRGDQTTLLTARHDLKNKGLNDISTIIKQELTEGKALALSHTYANVSISHVINLWGADFNAEGNLEAIYVTDSDANASIGMKKYFVGINAHGHVAISAKKIEGENIGAQVLGLFTLSSGKDIWQKLSLEHHHHHH
B8: PRT-632 (protein)
chain: MQITSVWTYGVTPLTPEQFRYNNYEVIHAPYKEGQGWYDITKAFDGKDNLLCGAATAGNMLHWWFDQNKTEIEAYLSKHPEKQKIIFNNQELFDLKAAIDTKDSQTNSQLFNYFRDKAFPNLSARQLGVMPDLVLDMFINGYYLNVFKTQSTDVNRPYQDKDKRGGIFDAVFTRGDQTTLLTARHDLKNKGLNDISTIIKQELTEGRALALSHTYANVSISHVINLWGADFNAEGNLEAIYVTDSDANASIGMKKYFVGINAHGHVAISAKKIEGENIGAQVLGLFTLSSGKDIWQKLSLEHHHHHH
B9: PRT-608 (protein)
chain: MQITSVWTKGVTPLTPEQFRYNNEDVIHAPYLAHQGWYDITKAFDGKDNLLCGAATAGNMLHWWFDQNKTEIEAYLSKHPEKQKIIFNNQELFDLKAAIDTKDSQTNSQLFNYFRDKAFPNLSARQLGVMPDLVLDMFINGYYLNVFKTQSTDVNRPYQDKDKRGGIFDAVFTRGDQTTLLTARHDLKNKGLNDISTIIKQELTEGRALALSHTYANVSISHVINLWGADFNAEGNLEAIYVTDSDADEKIGMKKYFVGINAHGHVAISAKKIEGENIGAQVLGLFTLSSGKDIWQKLSLEHHHHHH
B10: PRT-691 (protein)
chain: MQITTVWTKGVTPPTPEQFRYNNEDVIHAPYLPNQGWYDITKTFNGKDNLLCGAATAGNMLHWWFDQNKTEIEAYLSKYPEKQKIIFNNQELFDLRAAINTKDSQTNSQLFNYFRDKAFPNLSARQLGVMPDLVLDMFINGYYLNVFKTQSTDVNRPYQDRDKRGGIFDAVFNRGDQTTLLTARHDLKNKTLNDISTLIKQELSSGKALALSHTYANVSISHVINLWGADFNAEGNLEAIYVTDSDANASIGMKKYYVGVNAHGKVAISAKKIEGENIGAQVLGLFTLSSGKDIWQKLSLEHHHHHH
B11: PRT-665 (protein)
chain: MQITSVWTKGVTPPTPEQFRYNNEDVIHAPYLAHQGWYDITKAFDGKDNLLCGAATAGNMLHWWFDQNKTEIEAYLSKYPEKQKIIFNNQELFDLRAAINTKDSQTNSQLFNYFRDKAFPNLSARQLGVMPDLVLDMFINGYYLNVFKTQSTDVNRPYQDKDKRGGIFDAVFTRGDQTTLLTARHDLSNKGLNDISTIIKQELTEGRALALSHTYANVSISHVINLWGADFNAEGNLEAIYVTDSDSNASIGMKKYYVGINASGHVAISAKKIEGEVIGAQVLGLFTLSSGKEIWQKLSLEHHHHHH
B12: PRT-66 (protein)
chain: MANQEIRYSEVTPYHVTSVWTKGVTPPANFTQGEDVFHAPYVANQGWYDITKTFNGKDDLLCGAATAGNMLHWWFDQNKDYIKRYLEEHPEKQKINFNGEQMFDVKEAIDTKNHQLDSKLFEYFKEKAFPYLSTKHLGVFPDHVIDMFINGYRLSLTNHGPTPVKEGSKDPRGGIFDAVFTRGDQSKLLTSRHDFKEKNLKEISDLIKKELTEGKALGLSHTYANVRINHVINLWGADFDSNGNLKAIYVTDSDSNASIGMKKYFVGVNSAGKVAISAKEIKEDNIGAQVLGLFTLSTGQDSWNQTN
B13: PRT-67 (protein)
chain: MANQEIRYSEVTPYHVTSVWTKGVTPPANFTQGEDVFHAPYVANQGWYDINKTFNGKDDLLCGAATAGNMLHWWFDQNKDQIKRYLEEHPEKQKINFNGEQMFDVKEAIDTKNHQLDSKLFEYFKEKAFPYLSTKHLGVFPDHVIDMFINGYRLSLTNHGPTPVKEGSKDPRGGIFDAVFTRGDQSKLLTSRHDFKEKNLKEISDLIKKELTEGKALGLSHTYANVRINHVINLWGADFDSNGNLKAIYVTDSDSNASIGMKKYFVGVNSAGKVAISAKEIKEDNIGAQVLGLFTLSTGQDSWNQTN

These results are taken from patent US20250027068.

In this data set the target is pooled human IgG.
Take B1: the Enzyme Activity Endpoint Assay (purified): Fab′2 is 850 ng/µL, the Enzyme Activity Endpoint Assay (purified): Fc was determined as 464 ng/µL, the Enzyme Activity Endpoint Assay (purified): IgG came out at 0 ng/µL and the Enzyme Activity Endpoint Assay (purified): scIgG was found to be 0 ng/µL.
Take B2: the Enzyme Activity Endpoint Assay (purified): Fab′2 was 816 ng/µL, the Enzyme Activity Endpoint Assay (purified): Fc was 389 ng/µL, the Enzyme Activity Endpoint Assay (purified): IgG worked out at 0 ng/µL and the Enzyme Activity Endpoint Assay (purified): scIgG came to 0 ng/µL.
In the case of B3, the Enzyme Activity Endpoint Assay (purified): Fab′2 was determined as 946 ng/µL, the Enzyme Activity Endpoint Assay (purified): Fc worked out at 499 ng/µL, the Enzyme Activity Endpoint Assay (purified): IgG is 0 ng/µL and the Enzyme Activity Endpoint Assay (purified): scIgG was found to be 0 ng/µL.
B4 returned an Enzyme Activity Endpoint Assay (purified): Fab′2 of 778 ng/µL, an Enzyme Activity Endpoint Assay (purified): Fc of 441 ng/µL, an Enzyme Activity Endpoint Assay (purified): IgG of 0 ng/µL and an Enzyme Activity Endpoint Assay (purified): scIgG of 0 ng/µL.
B5 came in with an Enzyme Activity Endpoint Assay (purified): Fab′2 of 792 ng/µL, an Enzyme Activity Endpoint Assay (purified): Fc of 448 ng/µL, an Enzyme Activity Endpoint Assay (purified): IgG of 0 ng/µL and an Enzyme Activity Endpoint Assay (purified): scIgG of 0 ng/µL.
Protein B6 displayed an Enzyme Activity Endpoint Assay (purified): Fab′2 of 951 ng/µL, an Enzyme Activity Endpoint Assay (purified): Fc of 507 ng/µL, an Enzyme Activity Endpoint Assay (purified): IgG of 0 ng/µL and an Enzyme Activity Endpoint Assay (purified): scIgG of 0 ng/µL.
For the protein B7, the Enzyme Activity Endpoint Assay (purified): Fab′2 came out at 755 ng/µL, the Enzyme Activity Endpoint Assay (purified): Fc was 394 ng/µL, the Enzyme Activity Endpoint Assay (purified): IgG was 0 ng/µL and the Enzyme Activity Endpoint Assay (purified): scIgG was 0 ng/µL.
Protein B8 returned an Enzyme Activity Endpoint Assay (purified): Fab′2 of 703 ng/µL, an Enzyme Activity Endpoint Assay (purified): Fc of 399 ng/µL, an Enzyme Activity Endpoint Assay (purified): IgG of 0 ng/µL and an Enzyme Activity Endpoint Assay (purified): scIgG of 0 ng/µL.
Regarding B9, the Enzyme Activity Endpoint Assay (purified): Fab′2 was 863 ng/µL, the Enzyme Activity Endpoint Assay (purified): Fc is 484 ng/µL, the Enzyme Activity Endpoint Assay (purified): IgG was found to be 0 ng/µL and the Enzyme Activity Endpoint Assay (purified): scIgG was 0 ng/µL.
In turn, B10 displayed an Enzyme Activity Endpoint Assay (purified): Fab′2 of 184 ng/µL, an Enzyme Activity Endpoint Assay (purified): Fc of 337 ng/µL, an Enzyme Activity Endpoint Assay (purified): IgG of 110 ng/µL and an Enzyme Activity Endpoint Assay (purified): scIgG of 682 ng/µL.
As to B11, the Enzyme Activity Endpoint Assay (purified): Fab′2 turned out to be 816 ng/µL, the Enzyme Activity Endpoint Assay (purified): Fc came to 414 ng/µL, the Enzyme Activity Endpoint Assay (purified): IgG came out at 63 ng/µL and the Enzyme Activity Endpoint Assay (purified): scIgG was determined as 109 ng/µL.
Take B12: the Enzyme Activity Endpoint Assay (purified): Fab′2 was 49 ng/µL, the Enzyme Activity Endpoint Assay (purified): Fc was 115 ng/µL, the Enzyme Activity Endpoint Assay (purified): IgG is 15 ng/µL and the Enzyme Activity Endpoint Assay (purified): scIgG turned out to be 13 ng/µL.
B13 yielded an Enzyme Activity Endpoint Assay (purified): Fab′2 of 10 ng/µL, an Enzyme Activity Endpoint Assay (purified): Fc of 78 ng/µL, an Enzyme Activity Endpoint Assay (purified): IgG of 23 ng/µL and an Enzyme Activity Endpoint Assay (purified): scIgG of 61 ng/µL.
